Results reported in patent publication US9206239B2, “Treatment of cancers with immunostimulatory HIV Tat derivative polypeptides” (PIN Pharma, Inc., priority 2009, dated 2015).
“Also recorded” adds a separate entry of the source.

Legend:
SM1 breast cancer cells = assay: SM1 breast carcinoma model; type: in vivo, mice
Procedure: (§1) 4T1 cells, a 6-thioguanine-resistant cell line derived from a BALB/c spontaneous mammary carcinoma was obtained from ATCC; TS/A, a murine adenocarcinoma cell line was provided by Dr. Sandra Demaria (Demaria S. et al. Clin Cancer Res. 11:728-34, 2005); and SM1, the BALB/C-derived mammary carcinoma was kindly was provided by Dr. James Allison, University of California, Berkeley. All tumor cell lines were cultured in DMEM, supplemented with 2 mM L-glutamine, 10 mM HEPES, 150 units/ml penicillin/streptomycin, 10% heat-inactivated FCS (Invitrogen), 50 μM 2-mercaptoethanol (Sigma), and 50 mg/L gentamicin (Lanza).
(§2) BALB/c were injected (SC) with 1×10^4 4T1, 1×10^5 TS/A or 2×10^5 SM1 cells, respectively, in the left mammary pad on day 0. Immunotherapy was performed by directly injecting a Tat derivative into the right flank at 0, 7, 12, and 17 days after establishment of tumors. The control group received PBS injection. […] Tumor burden (tumor volume) was measured and recorded three times weekly. Animals were sacrificed when tumors reached a volume of 15 mm in diameter and the tumors harvested and weighed.

TS/A breast cancer cells = assay: TS/A breast carcinoma model; type: in vivo, mice; settings: for primary anti-cancer difference vs control: p<0.01
Procedure: as §1, §2

[1] = test system: IFN-γ production by spleen cells; assay: ELISA analysis of IFN-γ production by immune spleen cells of 4T1 tumor-bearing mice; type: in vivo, BALB/c mice
Procedure: FIG. 7 depicts INF-γ production from spleen cells of mice bearing 4T1 breast tumors. BALB/c mice were injected SC with 1×10^4 4T1 cells. Control animals received weekly injections of PBS, while the Nani-P2 treatment comprised once weekly SC injections (40 ng) initiated at day 0 and continued for 4 weeks. On day 33, when control mice were at endstage, the mice were sacrificed, the spleens harvested and frozen as single cell suspensions until time of assay. Spleen cells (2×10^5) and 1×10^4 mitomycin C-treated (50 μg/ml for 30 min) 4T1 stimulator cells (S) were plated into 96-well plates. After 72 hr of stimulation, the supernatants were collected and IFN-γ concentration was determined using a commercial IFN-γ ELISA kit. […] 1: no restimulation; 2: IL-4 (50 ng/ml)/GM-CSF ([…]); 3: stimulator cells/IL-4/GM-CSF; 4: stimulator cells only.
Splenocyte secretion of IFN-γ was assessed by an OPTEIA® ELISA kit (BD Biosciences). Briefly, spleen cells (1×10^5/well) from 4T1 tumor-bearing mice were cultured with or without 5×10^3/well mitomycin C (50 μg/ml)-treated 4T1 cells (used to provide tumor antigens) in DMEM in at a 20:1 E:T (effector:tumor) ratio with […] (50 ng/mL) and GM-CSF (100 ng/ml) in 96-well plates. Supernatants were collected after 72 hr and kept frozen at −80° C. until analysis without loss of activity. IFN-γ was measured in cell-free supernatants of duplicate wells by ELISA according to the manufacturer's instructions. Tumor-specific IFN-γ production was calculated by subtracting the background values measured in supernatants of spleen cells cultured with medium alone and optical density (OD) values were converted to pg/ml amounts of IFN-γ using a recombinant IFN-γ standard curve. Stimulation index (SI) was calculated as the ratio of IFN-γ in stimulated versus control cultures.
To determine whether cytotoxic T-lymphocytes play a role in tumor rejection induced by Nani-P2 therapy, an IFN-γ ELISA assay (FIG. 7) was performed to compare spleen cells of 4T1 tumor-bearing mice treated either without (Control) or with Nani-P2 (FIG. 7). […]

[2] = Toxicity observation in treated mice; type: in vivo; settings: SC or IV administration of 40 ng, multiple trials and dosing schedules
Human monocytes = assay: CD86 expression on human monocytes cultured with Tat derivative; type: cell-based; settings: human monocytes cultured 24-28 hours; compared with ISS (TLR) or LPS
Procedure: Human monocytes were cultured for 24-28 hours with a Tat derivative (Nani-P2), an immunostimulatory sequence (ISS) of a toll-like receptor (TLR) (FIG. 1) or lipopolysaccharide (LPS) (FIG. 2) and the cells were then washed and stained with fluorescent-labeled CD86.

4T1 lung metastases = assay: Detection of 4T1 lung metastases; type: in vivo, BALB/c mice; settings: treated IV, established 4T1 tumors; p<0.01 vs PBS
Description: Lungs were examined for 4T1 metastases as previously described (Pulaski B. et al. Cancer Res. 60:2710-2715, 2000). Primary 4T1 tumors that have been established for 2-3 weeks in BALB/c mice metastasize to the lungs in a very large majority of animals. Briefly, mice were sacrificed according to IACUC guidelines established at the start of the trials, the lungs removed, and tumor nodules on the surface of the lungs were enumerated with the naked eye by two independent investigators blinded to the treatment protocols.
To further investigate the efficacy of Nani-P2 against established and metastatic breast cancer, 4T1 cells were injected SC in the abdominal mammary gland of mice and treatment was delayed until such time that the tumors had metastasized to the lungs and averaged 3.5 mm in size (FIG. 8A, day 13), corresponding to a 2.4 cm or stage T2 human breast tumor. Mice were followed for tumor growth (FIG. 8A) and lung metastases (FIG. 8B). […] This corresponded to a less aggressive appearance of primary tumor, as well as lung metastases that were on average much smaller in size (FIG. 8B).

4T1 breast tumor cells = assay: 4T1 breast tumor growth in BALB/c mice; type: in vivo

B1: Nani-P2: HIV Tat derivative polypeptide, SEQ ID NO: 3; derivatized Tat amino terminus from an African Green Monkey variant SIV (protein)
chain: MDPKGEEDQDVSHQDLIKQYRKPRTACNNCYCKKCCFHCYACFLRKGLGITYHAFRTRRKKIASADRIPVPQQSISIRGRDSQTTQESQKKVEEQAKANLRISRKNLGDETRGPVGAGN
modifications: Nani-P2 modified HIV Tat sequence
notes: derivatized Tat amino terminus from an African Green Monkey variant SIV
difference in primary tumor growth between control and treated animals (SM1 breast cancer cells; 40 ng SC days 0, 7, 14, 21, p<0.01): highly statistically significant | animals remaining in remission (SM1 breast cancer cells; 28 days following implant, one week after termination of the regimen): 40% | animals in which tumor growth was suppressed (SM1 breast cancer cells; for 16 days, 40 ng SC days 0, 7, 14, 21): 100% | suppression of growth (TS/A breast cancer cells; 0.4 ng SC): ~50% | primary anti-cancer difference vs control (TS/A breast cancer cells; 40 ng SC): highly significant | total remission rate (TS/A breast cancer cells; at 30 days): 40% | primary anti-cancer difference vs control (TS/A breast cancer cells; lowest dose (0.4 ng SC)): highly significant | baseline levels of INF-γ secreted by splenocytes vs PBS-treated control mice ([1]; 40 ng SC weekly for 4 weeks, no restimulation): 8 fold | INF-γ production in cultures of spleen cells vs control ([1]; all conditions of assay): significantly (p<0.01**) higher | stimulation index vs control ([1]; tumor stimulators + IL4 + GM-CSF added at initiation of culture): 53 | toxicity [2]: no toxicity was observed | expression of CD86 (Human monocytes): higher expression of CD86 than either ISS (TLR) or LPS | average number of grossly visible tumor nodules in the lungs (4T1 lung metastases): seven | difference in mean tumor volume vs control group (4T1 breast tumor cells; 4 ng or 40 ng per mouse, four times over 21 days): highly significant | primary tumor burden vs PBS control, established tumors (4T1 breast tumor cells; 40 ng IV weekly for three weeks from day 14, trial 50 days, p<0.01): statistically significant benefit in primary tumor suppression; also recorded: highly significant | animals with complete remission, disease-free (4T1 breast tumor cells; 40 ng IV weekly x3 from day 14, at 50 days): 1/10 and One of 10 | mice with regression of tumor at the initial treatment (4T1 breast tumor cells; 40 ng IV, initial treatment on day 14): 7/10 | decrease of tumor burden on average at maximal effect (4T1 breast tumor cells; SC therapy begun on day 13, tumors about 5 mm in diameter): 52% | breast tumor growth inhibitory effect on 4T1 tumors (4T1 breast tumor cells; highly-purified, SC, 0.4 ng to 40 ng per dose): dose-dependent
